Experimental data taken from article PMC11931385, “Structural and functional analysis of cancer-associated missense variants in the retinoblastoma protein pocket domain” (The Journal of Biological Chemistry, 2025).
No end group written: not given here. TMR = tetramethyl rhodamine dye

T1: Rb^P S474I (human, UniProt P06400 380-788, S474I)
T1 construct: also called variant 11
T1 sequence (looked up): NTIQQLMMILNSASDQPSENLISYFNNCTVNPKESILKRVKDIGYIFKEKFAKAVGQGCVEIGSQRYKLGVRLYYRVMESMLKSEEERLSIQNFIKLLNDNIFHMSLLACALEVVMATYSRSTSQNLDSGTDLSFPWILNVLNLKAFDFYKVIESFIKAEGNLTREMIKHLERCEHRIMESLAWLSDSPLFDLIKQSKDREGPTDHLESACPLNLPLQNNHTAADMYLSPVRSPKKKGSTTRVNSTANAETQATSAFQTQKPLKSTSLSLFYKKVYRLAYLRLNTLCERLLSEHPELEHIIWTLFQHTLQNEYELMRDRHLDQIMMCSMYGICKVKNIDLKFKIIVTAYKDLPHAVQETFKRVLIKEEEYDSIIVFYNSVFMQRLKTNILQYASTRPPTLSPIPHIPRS

T2: Rb^P E539D (human, UniProt P06400 380-788, E539D)
T2 construct: also called variant 24
T2 sequence (looked up): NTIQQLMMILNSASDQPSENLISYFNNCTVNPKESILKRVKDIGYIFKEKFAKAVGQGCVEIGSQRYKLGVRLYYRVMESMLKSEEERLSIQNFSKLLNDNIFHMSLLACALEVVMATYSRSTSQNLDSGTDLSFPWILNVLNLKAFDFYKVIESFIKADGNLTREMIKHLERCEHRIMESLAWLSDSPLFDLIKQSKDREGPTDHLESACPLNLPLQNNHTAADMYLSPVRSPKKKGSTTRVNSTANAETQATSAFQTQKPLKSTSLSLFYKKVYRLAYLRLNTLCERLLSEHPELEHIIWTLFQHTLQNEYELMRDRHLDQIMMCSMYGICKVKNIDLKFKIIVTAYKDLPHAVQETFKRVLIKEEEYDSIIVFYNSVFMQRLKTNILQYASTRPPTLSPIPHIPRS

T3: Rb^P R621S (human, UniProt P06400 380-788, R621S)
T3 construct: also called variant 44
T3 sequence (looked up): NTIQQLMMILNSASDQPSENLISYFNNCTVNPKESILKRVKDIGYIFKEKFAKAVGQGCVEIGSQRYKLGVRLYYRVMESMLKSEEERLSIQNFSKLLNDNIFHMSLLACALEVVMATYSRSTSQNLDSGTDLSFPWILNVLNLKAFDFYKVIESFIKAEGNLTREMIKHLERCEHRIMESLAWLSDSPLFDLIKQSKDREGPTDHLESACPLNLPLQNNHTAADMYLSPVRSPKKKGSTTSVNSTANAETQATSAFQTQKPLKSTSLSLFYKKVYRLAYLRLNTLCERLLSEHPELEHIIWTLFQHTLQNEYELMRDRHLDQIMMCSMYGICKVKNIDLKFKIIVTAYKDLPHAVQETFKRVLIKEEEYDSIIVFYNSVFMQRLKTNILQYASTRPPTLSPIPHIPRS

T4: Rb^P H555Y (human, UniProt P06400 380-788, H555Y)
T4 construct: also called variant 29
T4 sequence (looked up): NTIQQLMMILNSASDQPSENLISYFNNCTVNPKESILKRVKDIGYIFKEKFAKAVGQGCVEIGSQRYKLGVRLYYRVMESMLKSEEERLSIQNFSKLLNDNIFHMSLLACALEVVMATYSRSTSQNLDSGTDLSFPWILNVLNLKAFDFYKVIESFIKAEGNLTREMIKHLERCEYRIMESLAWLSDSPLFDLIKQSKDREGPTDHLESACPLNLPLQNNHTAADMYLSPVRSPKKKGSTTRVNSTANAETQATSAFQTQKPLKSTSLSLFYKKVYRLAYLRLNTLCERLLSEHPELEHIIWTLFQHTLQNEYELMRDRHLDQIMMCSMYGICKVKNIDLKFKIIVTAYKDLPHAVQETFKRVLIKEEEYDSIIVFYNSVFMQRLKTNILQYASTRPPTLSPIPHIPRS

T5: Rb^P R451C (human, UniProt P06400 380-788, R451C)
T5 construct: also called variant 5
T5 sequence (looked up): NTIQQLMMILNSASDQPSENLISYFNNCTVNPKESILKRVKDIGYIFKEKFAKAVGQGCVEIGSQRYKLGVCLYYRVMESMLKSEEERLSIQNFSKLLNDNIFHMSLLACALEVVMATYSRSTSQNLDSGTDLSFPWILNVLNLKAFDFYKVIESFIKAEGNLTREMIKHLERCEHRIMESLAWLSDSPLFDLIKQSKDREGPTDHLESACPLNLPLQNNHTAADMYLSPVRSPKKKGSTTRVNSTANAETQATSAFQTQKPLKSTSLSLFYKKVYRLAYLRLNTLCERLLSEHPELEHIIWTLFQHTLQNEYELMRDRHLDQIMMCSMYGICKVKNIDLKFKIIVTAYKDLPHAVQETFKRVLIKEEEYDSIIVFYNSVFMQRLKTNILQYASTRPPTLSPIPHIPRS


Legend:
Experiment in all cases: fluorescence polarisation; 37 °C, after the 25 °C reading ramped over 7 min to 37 °C and 2 min incubation; unlabeled Rb^P against 1.5 nM TMR-E2F1^TD or 7.5 nM TMR-E7^LxCxE; 25 mM Tris pH 8.0, 200 mM NaCl, 1 mM DTT, 0.1% Tween-20; apparent Kd
Settings in all cases: both partners purified
Rb^P S474I = molecular target: T1, Rb^P S474I
Rb^P E539D = molecular target: T2, Rb^P E539D
Rb^P R621S = molecular target: T3, Rb^P R621S
Rb^P H555Y = molecular target: T4, Rb^P H555Y
Rb^P R451C = molecular target: T5, Rb^P R451C

Binder | Kd (Rb^P S474I) | Kd (Rb^P E539D) | Kd (Rb^P R621S) | Kd (Rb^P H555Y) | Kd (Rb^P R451C)
{TMR}-GEGIRDLFDCDFGDLTPLD (also called E2F^TD; source: synthetic peptide, bought: GenScript) [TMR-E2F1^TD, peptide of the E2F1 transactivation domain] | 775 nM | 104 nM | 38 nM | 366 nM | 51 nM
DLYCYEQLN (also: TMR label, position not given here, source: synthetic peptide, bought: GenScript) [TMR-E7^LxCxE, LxCxE peptide of the E7 oncoprotein from HPV] | 18 nM | 19 nM | 17 nM | 32 nM | 19 nM
